# Assay: yeast display, Sf9 membrane polyspecificity reagent, FACS + sequencing; frameworks hold sequencing errors
# Procedure, shortened: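 Using colony PCR, genes from sorted yeast display clones were amplified, then sequenced on MiSeq at 2 × 250 and filtered by CDR length. The clones had been stained with 10% biotinylated, detergent-solubilized Sf9 membrane reagent for 1 hour at 4 °C and sorted by FACS into low and high (top ~1%) gates on anti-HA and streptavidin fluorescence. Polyreactivity labels come from the gate of origin.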
row,Sequence,polyreactivity (PSR sort gate)
1,QVQLVESGGGLVQAGGSLRLICAACGYTFEHYAMGWYRQAPGKERELVAAITRSGGSTSYADSVKGRFTISRDNAKNTVFLQMNRVKPEDTAVYYCAADSIRYFDYDYWGQGPQVTVSS,low polyreactivity
2,QVQLVESGGGLVQAGGSLRLICAASGFIFITNAMGWSRQAPGKERELVAAITSSDGNTYYADSVKGRFTISRDNAKNTVYLQMNSLKPEDTAVYYCADDARTKSYVRLYDYWGQGTQVTVSS,low polyreactivity
3,QVQLVESGGGLVQAGGSLRLICAASGFIFSFNAMGWYRQAPGKERELVAAIRRSAGSTYYADSVKGRFTISRDNAKNTVYLQMNSLKPEDTAVYYCATVTRLYRHGYWGQGTQVTVSS,high polyreactivity
4,QVQLVESGGGLVQAGGSLRLICAASGFIFSSYAMVWYRQAPGKERDLVAAISQTVGGTYYADSVKGRFTISRDNAKNTVYLQMNSLKPEDTAVYYCAADVYTASDRYWHDYWGQGTQVTVSS,low polyreactivity
5,QVQLVESGGGLVQAGGSLRLICAASGFIFTLYAMGWYRQAPGTERELVAAISKTGGRTYYADSVKGRFTISRDNAKNTVYLQMNSLKPEDTAVYYCAKDVPSTYAAAYDYWGQGTQVTVSS,high polyreactivity
6,QVQLVESGGGLVQAGGSLRLICAASGFIIYIYAMGWYRQAPGKERELVAAISRSGVGTYYADSVKGRFTISRDNAKNTVYLQMNSLKPEDTAVYYCARSRSGYRYDYWGQGTQVTVSS,high polyreactivity
7,QVQLVESGGGLVQAGGSLRLICAASGFISVRNAMGWYRQGPGKERELGAAISSGDTTDYADSVKGSFTISRDNAKNTVYLQMNSLKPEDTAVYYCAAVYYGRYYYWGQGTQVTVSS,low polyreactivity
8,QVQLVESGGGLVQAGGSLRLICAASGFTFASNAMGWYRQATGKERELVAAITTSGGSTYYADSVKGRFTISRDNAKNTVYLQMNSLKPEDTSVYYCADRATSRRPYSYGSWGQGTQVTVSS,high polyreactivity
9,QVQLVESGGGLVQAGGSLRLICAASGFTFGEYAMGWYRQAPGKERDFVASISWDGASTYYADSVKGRFTISRDNAKNTVYLQMKSLKPEDTAVYYCAATRYYSFWGQGTQVTVSS,low polyreactivity
10,QVQLVESGGGLVQAGGSLRLICAASGFTFGYYAMGWYRQAPRKERELVAAISYTGGSTYYADSVKGRFTISRDNAMNTVYLQMNSLKPEDTAVYYCNAYSALYGSYNYWGQGTQVTVSS,high polyreactivity
11,QVQLVESGGGLVQAGGSLRLICAASGFTFSYYAMGWYRQAPGKESELVAGITTGGGTNYADSVKGRFTISRDNAKNTVYLQMNCLKPEDTAVYYCNAVGSHWVSYSSPVRFDFWGQGTQVTVSS,low polyreactivity
12,QVQLVESGGGLVQAGGSLRLICAASGFTFYKNTMGWYRQAPGKERELVAAISSSGSSTYYADSVKGRFTISRDNAKNTVYLQMNSLKPEDTAVYYCAAGRFAYHDDYWGQGTQVTVSS,high polyreactivity
13,QVQLVESGGGLVQAGGSLRLICAASGGIFWYNAMGWYRPAPGKERELVADISSSGITYYADSVKGRFTISRDNAKNTVYLQMNSLKPEDTAVYYCAADSTTRPGLRVYDDYDYWGQGTQLTVSS,low polyreactivity
14,QVQLVESGGGLVQAGGSLRLICAASGGIFYSNARGWYRQAPGKERDFVAAITRSGTSTYYADSVKGRITISRDNAKNTVYLQMNSLKPVDTAVYYCAADYRYRRYRGHVSKLYYWGQGTQVTVSS,low polyreactivity
15,QVQLVESGGGLVQAGGSLRLICAASGIIFGIYDMGWYRQAPGKERELVAAIRRSGGSTYYADSVKGRFTISRDNAKNTVYLQMNSLKPEDTAVYYCATDAWYYSQTNHDYWGQGTQVTVSS,low polyreactivity
16,QVQLVESGGGLVQAGGSLRLICAASGIIFQAYTMGWSRQAPGKERELVAAISYSGGSTYYADSVKGRFTISSDNAKNSVYLEMKSLKPEDTAVYYCARRSRYLWRYDYWGQGTQVTVSA,high polyreactivity

row,Sequence,polyreactivity (PSR sort gate)
1,QVQLVESGGGLVQAGGSLRLICAASGIIFYYAMGWYRQAPGKEREFVASIRWSGDSTYYADSVKGRFTISRDNAKNTVYLQMNSLKPEDTAVYYCAAEPDSAVSYVSWRDYWGQGTQVTVSS,low polyreactivity
2,QVQLVESGGGLVQAGGSLRLICAASGIILYSYAMGWYRQAPGKERELVAAISRRGTSTFYADSVKGRFTISRDNAKNTVYLQMNSLKPEDTAVYYCAADFYTNHYDYWGQGTQVTVSS,high polyreactivity
3,QVQLVESGGGLVQAGGSLRLICAASGITFEVYAMGRYRLAPGKEMELVAVITSVGSTNYADSVKGRFTISRDNAKNTVYLQMNSLKPEDPAVYYCAALKWTVRRFNPYTYYRYDYWGQGTQVTVSS,low polyreactivity
4,QVQLVESGGGLVQAGGSLRLICAASGITFPSNTMGWYRQAPGKERELVAAITRGDNTYYADSVKGRFTISRDNAKNTVYLQMNSLKPEYTAVYYCATEGYQIQYEHDYWGQGTIVTVSS,low polyreactivity
5,QVQLVESGGGLVQAGGSLRLICAASGITFSAYAMGWYRQAPGKERELVAAITRSGGITYYADSVKGRFTISRDNAKNSVYLQMNSLKPEDTAVYYCNKPYASPYYDSWGQGTQVTVSS,high polyreactivity
6,QVQLVESGGGLVQAGGSLRLICAASGITFTGYAMGWYTQAPGKERELVAVISETGGSTYADSVKGRFTISRDNAKNTVYLQMNSLKPEDTAVYYCAARLWWPYSTAWAKMDYWGQGTQVTVSS,low polyreactivity
7,QVQLVESGGGLVQAGGSLRLICAASGITFVEYSMGWYRQAPGKERDLVAAISWSGVRTRYADSVKGRFTISRDNAKNTVYLQMNSLKPEDTAVYYCYTVPRGGGGVRILDYWGQGTQVTESS,high polyreactivity
8,QVQLVESGGGLVQAGGSLRLICAASGITFVYYAMGWYRQAPGKERELVAAISTSGDSTYYADSVKGRFTISRDNAKNTVYLPMNSLKPEDTAVYYCAADADYYQYGWRVYYWGQGTQVTVSS,low polyreactivity
9,QVQLVESGGGLVQAGGSLRLICAASGITFYAYPMGWYRQAPGKERELVAAITSSGSSTYYADSVKGRFTISLDNAKNTVYFQMNSLKPEDTAVFYCAATRGTKFYWGQGTQVTVSS,high polyreactivity
10,QVQLVESGGGLVQAGGSLRLICAASGITTRTYAMGWYRQAPGKDRELVAAISDSGDRTYYADSVKGRFTISRDNAKNTVYLQMNRLKPEDTAVYYCAVDAPGPRCEFWGQGTKVTVSS,low polyreactivity
11,QVQLVESGGGLVQAGGSLRLICAASGLIFGRYDMGWYRQAPGKERELVAAISGGTTNYADSVKGRFTISRDNAKNTVYLEMNSLKPEDTAVYYCNAGPSQPGGIFYEYDYWGQGTQVTVSS,low polyreactivity
12,QVQLVESGGGLVQAGGSLRLICAASGLIFKFYAMGWYRQAPGKERELVASIRGSGDNTYYADSVKGRFTISRDNAKNTVYLQMNSLKPEDTAVYYCAADWLYDYGEYYYWGQGTQVTVSS,high polyreactivity
13,QVQLVESGGGLVQAGGSLRLICAASGLIFRGYAKGWYRQAPGKERELVAAISKSGGSTYYADSVKGRFTISRDNAKNTVYLQMNSLKPEDTAVYYCNTDYVWKYFLSSQYDYWGQGTQVTVSS,high polyreactivity
14,QVQLVESGGGLVQAGGSLRLICAASGLTFVYYTKRSYTQAPGKEREFVAGINSGGSTYYADSVKGRFTISRDNAKNTVYVQMNSLKPVDTAVYYCAAVERGYRRFRRIYDYWGQGTQVTVSS,high polyreactivity
15,QVQLVESGGGLVQAGGSLRLICAASGLTFWYYAMGWYRQAPGKERELVARITRSGVGTYYADSVKGRFTISRDNAKHTVYLQMNSLKPEDTAVYYCNARYQYSWVRYGYDYWGQGTQVTVSS,high polyreactivity
16,QVQLVESGGGLVQAGGSLRLICAASGLTYVSYAMGWYRQAPGKERELVAGITSGGGTTDYADSVKGRFTISRDNAKTTVYLQMNSLTPEDTAVYDCNARSVYDGFWYNYWGQGTQVTVSS,high polyreactivity
